Reference: article PMC3545873

Columns and labels:
StrepTag II = details: cited from earlier work
StrepTactin = experiment: optical tweezers (single-molecule pulling); STN covalently coupled to polystyrene beads; tST-DNA-biotin held by its biotin on NTV-coated beads; tST-STN linkage formed in situ; stretched and relaxed at 50 nm/s to just beyond DNA overstretching at about 65 pN until the connection broke; connections that broke below 20 pN disregarded; N = 111

Row | average rupture force (StrepTactin) [pN] | Substance | Kd (StrepTag II) [µM] | fraction of times the tether survives overstretching (first pull) (StrepTactin) [%] | fraction of times the tether survives overstretching (subsequent pulls) (StrepTactin) [%]
1 | – | Streptavidin (from UniProt P22629) | 72 | – | –
2 | > 65 | tST-DNA-biotin (tandem of two StrepTag II peptides linked to 2553 bp dsDNA, biotinylated at the other DNA end) | – | 77 | 87
